Assay results from publication PMC9385847.

Molecular target: endogenous mTOR (mechanistic target of rapamycin) (mouse (endogenous in brain and MEFs)) (UniProt Q9JLN9)
Test: co-IP; anti-mTOR on Protein G beads; whole brain lysates of wild type or Thorase KO mice in buffer A, 1% Triton X-100, with or without 2 mM ADP, ATP or ATPγS, 4 °C; immunoblot

percent dissociated from mTOR (Thorase KO brain): 20%
percent dissociated from mTOR (wild type brain): 80%
Substance: endogenous S6K (from UniProt Q8BSK8 1-525) (enzyme)
